Values quoted from earlier work in patent publication US9932367B2, “Modification of polypeptides” (BicycleRD Limited, priority 2013, dated 2018).
Starred links: 1 amine or outer side, 2 acyl side, 3 side chain; linkers in the order of their positions; H or OH if unused. Positions of bridges follow the written chain, without caps; N, C: chain ends. TBMB = c1c(C[*:1])cc(C[*:3])cc1C[*:2]

Legend:
human PK (hPK) = human PK (hPK) (Homo sapiens, UniProt P03952)
rat PK = rat PK (Rattus norvegicus, UniProt P14272); conditions: highest concentration tested (10 μM)
Chain of rat PK (P14272 20-638): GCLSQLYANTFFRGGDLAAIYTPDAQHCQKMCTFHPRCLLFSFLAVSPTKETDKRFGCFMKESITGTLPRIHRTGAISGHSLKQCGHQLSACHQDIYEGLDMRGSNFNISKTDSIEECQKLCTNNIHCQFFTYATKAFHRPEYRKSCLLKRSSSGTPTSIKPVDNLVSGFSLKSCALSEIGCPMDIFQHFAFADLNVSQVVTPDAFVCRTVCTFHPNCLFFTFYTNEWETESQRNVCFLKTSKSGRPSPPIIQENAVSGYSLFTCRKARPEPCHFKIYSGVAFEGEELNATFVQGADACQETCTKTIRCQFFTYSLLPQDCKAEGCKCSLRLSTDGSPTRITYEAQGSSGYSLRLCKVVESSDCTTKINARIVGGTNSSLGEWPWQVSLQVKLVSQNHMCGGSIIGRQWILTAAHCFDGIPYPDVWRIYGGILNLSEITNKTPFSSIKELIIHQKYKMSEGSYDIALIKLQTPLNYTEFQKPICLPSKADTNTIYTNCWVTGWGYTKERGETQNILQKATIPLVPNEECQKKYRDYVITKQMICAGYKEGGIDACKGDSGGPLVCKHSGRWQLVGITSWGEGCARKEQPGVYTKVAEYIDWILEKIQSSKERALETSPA

factor XIa (hfXIa) = factor XIa (hfXIa) (Homo sapiens, UniProt P03951); conditions: highest concentration tested (10 μM)
Chain of factor XIa (hfXIa) (P03951 388-625 limits assumed): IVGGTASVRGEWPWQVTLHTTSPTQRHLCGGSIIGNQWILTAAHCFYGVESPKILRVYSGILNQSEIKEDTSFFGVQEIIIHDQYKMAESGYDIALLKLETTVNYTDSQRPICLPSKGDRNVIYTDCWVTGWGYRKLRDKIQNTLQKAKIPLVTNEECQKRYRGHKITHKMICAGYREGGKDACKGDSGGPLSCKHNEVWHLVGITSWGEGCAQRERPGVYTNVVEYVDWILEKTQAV
Chain of factor XIa (hfXIa) (P03951 19-387 partner limits assumed): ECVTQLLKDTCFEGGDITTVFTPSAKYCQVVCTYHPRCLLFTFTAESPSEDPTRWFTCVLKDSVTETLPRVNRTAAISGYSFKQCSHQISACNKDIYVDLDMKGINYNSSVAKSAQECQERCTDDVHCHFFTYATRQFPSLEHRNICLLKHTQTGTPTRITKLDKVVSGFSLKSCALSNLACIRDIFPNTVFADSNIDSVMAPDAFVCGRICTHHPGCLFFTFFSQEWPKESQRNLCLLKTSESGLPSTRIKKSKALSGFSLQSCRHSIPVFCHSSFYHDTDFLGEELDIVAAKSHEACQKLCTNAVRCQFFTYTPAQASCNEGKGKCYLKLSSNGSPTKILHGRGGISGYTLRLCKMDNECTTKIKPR

thrombin = thrombin (Homo sapiens, UniProt P00734); conditions: highest concentration tested (10 μM)

Chain of human PK (hPK) (P03952 391-638 limits assumed): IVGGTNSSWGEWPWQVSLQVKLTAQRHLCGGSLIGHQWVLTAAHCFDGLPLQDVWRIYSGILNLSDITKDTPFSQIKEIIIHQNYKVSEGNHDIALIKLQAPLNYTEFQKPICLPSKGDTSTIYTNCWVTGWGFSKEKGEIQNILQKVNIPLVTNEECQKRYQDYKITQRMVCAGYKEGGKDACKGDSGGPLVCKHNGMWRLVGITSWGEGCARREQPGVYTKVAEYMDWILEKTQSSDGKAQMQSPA
Chain of human PK (hPK) (P03952 20-390 partner limits assumed): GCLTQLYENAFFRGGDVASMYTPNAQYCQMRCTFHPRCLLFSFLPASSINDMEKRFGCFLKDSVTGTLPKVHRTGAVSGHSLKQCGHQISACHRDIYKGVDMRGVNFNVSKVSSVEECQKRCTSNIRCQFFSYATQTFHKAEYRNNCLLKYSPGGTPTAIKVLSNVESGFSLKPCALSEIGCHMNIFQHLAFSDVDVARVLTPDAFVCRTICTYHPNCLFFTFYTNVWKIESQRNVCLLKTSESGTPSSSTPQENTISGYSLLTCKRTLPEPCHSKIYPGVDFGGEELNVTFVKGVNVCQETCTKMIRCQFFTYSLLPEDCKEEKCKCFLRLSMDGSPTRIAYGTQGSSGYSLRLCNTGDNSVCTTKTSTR

three cysteines containing peptide (H-ACSDRFRNCPADEALCG-NH2) (SEQ ID NO: 18) coupled with TBMB; inhibitor of human plasma kallikrein (linker 2-9-16 via TBMB) [PK15]
Ki (human PK (hPK)): 3 nM | inhibition of rat PK (rat PK): did not inhibit | inhibition of human factor XIa (factor XIa (hfXIa)): did not inhibit | inhibition of thrombin (thrombin): did not inhibit
